Test results taken from patent US20240317847A1 (Bayer, published 2024).

T1: human IL2Ra (Peprotech, Germany, #200-02RC) (human, UniProt P01589 22-240)
T1 construct: Coated on the ELISA plate; also called hIL2Ra; IL-2 receptor alpha
T1 sequence (looked up): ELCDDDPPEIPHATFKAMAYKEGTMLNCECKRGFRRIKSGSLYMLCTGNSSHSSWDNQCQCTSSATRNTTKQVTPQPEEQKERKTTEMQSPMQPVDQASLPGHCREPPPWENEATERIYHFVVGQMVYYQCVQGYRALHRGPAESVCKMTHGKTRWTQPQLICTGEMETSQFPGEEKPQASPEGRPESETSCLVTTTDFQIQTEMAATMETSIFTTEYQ

T2: murine IL-11 (Invigate, e.g., lot #C210819-09) (mouse, UniProt P47873 22-199)
T2 construct: Bought protein; biotinylated where captured on streptavidin plates; also called mIL-11; mIL11
T2 sequence: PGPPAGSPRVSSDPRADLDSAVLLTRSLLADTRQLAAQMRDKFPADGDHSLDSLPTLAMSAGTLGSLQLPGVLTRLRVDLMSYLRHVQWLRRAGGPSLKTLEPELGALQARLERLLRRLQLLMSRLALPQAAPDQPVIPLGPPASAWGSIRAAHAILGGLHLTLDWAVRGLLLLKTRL

T3: human IL-11 (Invigate, e.g., lot #C121021-19) (human, UniProt P20809 22-199)
T3 construct: Bought protein; also called hIL-11; hIL11
T3 sequence: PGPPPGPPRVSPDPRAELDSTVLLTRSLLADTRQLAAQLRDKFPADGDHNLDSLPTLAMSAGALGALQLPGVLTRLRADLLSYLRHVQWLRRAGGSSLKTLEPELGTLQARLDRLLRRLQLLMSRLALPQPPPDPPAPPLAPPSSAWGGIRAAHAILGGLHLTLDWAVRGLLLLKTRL


Key:
[1] = molecular target: T1, human IL2Ra (Peprotech, Germany, …); experiment: direct binding ELISA on coated IL2Ra
[2] = molecular target: T2, murine IL-11 (Invigate, e.g., lot …); experiment: Tri-complex ELISA: antibody titrated against 8 nM murine IL-11, 2 nM murine gp130-human-Fc and 2 nM murine IL11RA-murine-Fc
Experimental: In the Tri-complex ELISA format IL-11 antibodies are tested for their ability to inhibit the formation of a complex consisting of murine or human gp130-Fc fusion protein, with murine or human IL-11, and a murine IL11RA-Fc fusion protein. The assay format was adapted according to FIG. 18 (a, b), depending on whether murine or human IL-11 IgG antibodies were tested.
The assay was performed using High Binding microtiter plates (Greiner, #781077). In a first step, 25 μl of goat anti human IgG (Sigma, #12136), diluted 1:1000 in coating buffer (Candor, #121125) was coated on the plate at 4° C. overnight. Next day, the plate was washed one time with 50 μl PBST and then blocked with 50 μl SmartBlock (Candor, #113125) for one hour at room temperature (RT). […] After three additional washes of the coated and blocked microtiter plate with PBS-T, 25 μl of each mixture were added and the assay plate was incubated for one hour at room temperature. After three additional washes, anti-mouse-gp130 biotinylated antibody (R&D, #BAF468) or anti-human gp130 biotinylated antibody (R&D, #BAF228), both 1:1000 in 10% SmartBlock PBS-T, was added and incubated for 1 hour at RT. After three additional washes, a Streptavidin-Peroxidase conjugate (Sigma, #S5512) 1:1000 in SmartBlock PBS-T was added and incubated for one hour at room temperature. After a final three washes, AmplexRed (Fisher Scientific, A12222), 1/1000 in PBS, 0,003% H₂O₂, was added as substrate and incubated for 15 min at RT in the dark. Then, the fluorescence was measured with a plate reader at 535/595 nm. Signals from dose responses were used to calculate IC50 values using GraphPad Prism software.

[3] = molecular target: T3, human IL-11 (Invigate, e.g., lot …); experiment: Di-complex ELISA: biotinylated human IL-11 on streptavidin plate, antibody titrated against 2 nM canine IL11RA-human-Fc (competitor)
Experimental: (§1) In the Di-complex ELISA format anti IL-11 antibodies are tested for the ability to interfere with the formation of complexes consisting of immobilized murine IL-11 (Invigate, e.g., lot #C210819-09) or human IL-11 (Invigate, e.g., lot #C121021-19), and murine IL11RA-Fc fusion proteins or canine IL11RA-human-Fc fusion protein (FIG. 17a, b).
(§2) The assay is performed using streptavidin coated microtiter plates (Greiner bio-one, #781997). In a first step, 10 nM biotinylated mouse IL-11 (Invigate, Germany, e.g., lot #C210819-09) or human IL-11 (Invigate, Germany, e.g., lot #C121021-19) is coated in 25 μl PBS on the plate at 4° C. overnight. Next day, the plate is washed three times with 50 μl PBST and then blocked with 50 μl SmartBlock (Candor, #113125) for one hour at room temperature (RT). After additional three washes with PBST, 25 μl of a mixture of the murine anti IL-11 antibody and recombinant canine IL11RA-Fc fusion protein (Sino Biological, #70078-D02H) in PBS-T, 10% Smartblock are added simultaneously to the plate and incubated for one hour at RT. […] After three additional washes with PBS-T, 25 μl anti-human-POD (Sigma, #A0170) in PBS-T, 10% Smartblock is added and incubated for 1 hour at RT. After a final three washes with PBS-T, 25 μl AmplexRed (Fisher Scientific, A12222), 1/1000 in PBS, 0,003% H₂O₂, is added as substrate and incubated for 15 min at RT in the dark. Then, the fluorescence is measured with a plate reader at 535/595 nm. Signals from dose responses were used to calculate IC50 values (GraphPad Prism). Efficacy was calculated as [(signal measured at lowest antibody concentration−signal measured at the highest antibody concentration)×100] divided by (signal measured at lowest antibody concentration−signal measured in the absence of IL11Ra).

[4] = molecular target: T2, murine IL-11 (Invigate, e.g., lot …); experiment: Di-complex ELISA: biotinylated murine IL-11 on streptavidin plate, antibody titrated against 2 nM canine IL11RA-human-Fc (competitor)
Experimental: as §1, §2

Row | Binder | binding result [1] | Efficacy (%) [2] | Efficacy (%) [3] | Efficacy (%) [4] | IC50 [2] | IC50 [3] | IC50 [4]
1 | TPP-18087 (antibody, mouse IgG1, V domains shown, mIgG1, Lambda) VH: EVQLLESGGGLVQPGGSLRLSCAASGFTFSHYDMNWLRQAPGKGLEWVGVISYDGSNKFYADFVKGRFTISRDNSKNTLYLQMNSLRAEDTAVYYCARTPGSHFDYWGQGTLVTVSS VL: QSVLTQPPSASGTPGQRVTISCSGSSSNIGNNAVNWYQQLPGTAPKLLIYYDDLLPSGVPDRFSGSKSGTSASLAISGLRSEDEADYYCSAWDDSLNGVVFGGGTKLTVLG | no binding (tested: 3.3E-7 [M] antibody) | 5.5% | 10.7% | 13.4% |  |  | 
2 | TPP-19528 (antibody, mouse IgG1, V domains shown, mIgG1, Lambda) VH: EVQLLESGGGLVQPGGSLRLSCAASGFTFSIYAMSWVRQAPGKGLEWVSSISDTGDRTYYADSVKGRFTISRDNSKNTLYLQMNSLRAEDTAVYYCARSNWGSLDYWGQGTLVTVSS VL: QSVLTQPPSASGTPGQRVTISCSGSSSNIGSNYVYWYQQLPGTAPKLLIYYDDLLPSGVPDRFSGSKSGTSASLAISGLRSEDEADYYCAAWDDSLSGRVFGGGTKLTVLG | no binding (tested: 3.3E-7 [M] antibody) | 76.6% | 57% | 79% | 14 nM | 3 nM | 24 nM
